These results are taken from article PMC11186044, “Rationally Engineering pH Adaptation of Acid‐Induced Arginine Decarboxylase from Escherichia coli to Alkaline Environments to Efficiently Biosynthesize Putrescine” (Advanced Science, 2024).

Changes are numbered by the printed parent chain. Names may count otherwise.

In data set [1] the target is T1, SpeB (Escherichia coli, UniProt P60651).
T1 construct: agmatinase; construct and assay details only in supplement
T1 sequence (P60651 1-306): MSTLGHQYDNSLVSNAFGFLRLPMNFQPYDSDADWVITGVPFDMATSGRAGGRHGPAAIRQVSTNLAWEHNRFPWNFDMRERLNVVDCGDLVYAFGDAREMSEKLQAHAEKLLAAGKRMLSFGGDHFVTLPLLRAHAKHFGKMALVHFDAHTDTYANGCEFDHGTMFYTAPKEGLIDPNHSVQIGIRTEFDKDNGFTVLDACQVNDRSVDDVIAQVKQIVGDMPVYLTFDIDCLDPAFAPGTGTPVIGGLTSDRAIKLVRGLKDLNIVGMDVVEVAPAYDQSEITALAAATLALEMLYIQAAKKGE
The data set is described as follows: agmatinase activity versus pH (details in supplement). Conditions: alkaline pH preferred; enzyme preparation not given. Format: biochemical.

Substrate in data set [2]: N=C(N)NCCC[C@H](N)C(=O)O
The data set is described as follows: agmatine formation by HPLC, Michaelis-Menten fit. Format: biochemical, Escherichia coli. The settings on record: pH 7.0, 37 °C, 0.5 mmol·L^−1 PLP, 2.5 mmol·L^−1 MgSO4, 5 mmol·L^−1 DTT. An excerpt:
agmatine formation by HPLC, Michaelis-Menten fit on AdiA

Take `N=C(N)NCCCCN` [agmatine]: the “agmatinase activity versus pH (details in supplement)” value in data set [1] was “SpeB, agmatinase that catalyzes the synthesis of putrescine from agmatine”.

B1: AdiA (Escherichia coli K-12) (protein)
chain: MKVLIVESEFLHQDTWVGNAVERLADALSQQNVTVIKSTSFDDGFAILSSNEAIDCLMFSYQMEHPDEHQNVRQLIGKLHERQQNVPVFLLGDREKALAAMDRDLLELVDEFAWILEDTADFIAGRAVAAMTRYRQQLLPPLFSALMKYSDIHEYSWAAPGHQGGVGFTKTPAGRFYHDYYGENLFRTDMGIERTSLGSLLDHTGAFGESEKYAARVFGADRSWSVVVGTSGSNRTIMQACMTDNDVVVVDRNCHKSIEQGLMLTGAKPVYMVPSRNRYGIIGPIYPQEMQPETLQKKISESPLTKDKAGQKPSYCVVTNCTYDGVCYNAKEAQDLLEKTSDRLHFDEAWYGYARFNPIYADHYAMRGEPGDHNGPTVFATHSTHKLLNALSQASYIHVREGRGAINFSRFNQAYMMHATTSPLYAICASNDVAVSMMDGNSGLSLTQEVIDEAVDFRQAMARLYKEFTADGSWFFKPWNKEVVTDPQTGKTYDFADAPTKLLTTVQDCWVMHPGESWHGFKDIPDNWSMLDPIKVSILAPGMGEDGELEETGVPAALVTAWLGRHGIVPTRTTDFQIMFLFSMGVTRGKWGTLVNTLCSFKRHYDANTPLAQVMPELVEQYPDTYANMGIHDLGDTMFAWLKENNPGARLNEAYSGLPVAEVTPREAYNAIVDNNVELVSIENLPGRIAANSVIPYPPGIPMLLSGENFGDKNSPQVSYLRSLQSWDHHFPGFEHETEGTEIIDGIYHVMCVKA
notes: recombinant full-length acid-induced arginine decarboxylase; homodecamer (five dimers) with PLP; plasmids in supplement
What is called Km is the substrate concentration at which the rate is half of its maximum. The term kcat denotes the number of substrate molecules converted per active site and unit of time at saturation. Broadly, the kcat/Km is the second-order rate constant that governs catalysis at low substrate concentration. Regarding B1, in data set [2], the Km came out at 12.08 ± 0.86 mM, the turnover number (kcat) worked out at 3.54 ± 0.28 s⁻¹ and the kcat/Km was found to be 290 M⁻¹ s⁻¹.

B2: AdiA (Escherichia coli K-12; E467K/H736E) (protein)
chain: B1 chain with E467K, H736E
notes: as for B1
In the case of B2, in data set [2], the Km was found to be 15.70 ± 0.87 mM, the catalytic constant (kcat) came to 29.2 ± 0.44 s⁻¹ and the kcat/Km came to 1860 M⁻¹ s⁻¹.

B3: AdiA (Escherichia coli K-12; E467K) (protein)
chain: B1 chain with E467K
notes: as for B1
On to B3, for which, in data set [2], the Michaelis constant (Km) turned out to be 14.30 ± 0.64 mM, the catalytic constant (kcat) was found to be 15.2 ± 0.23 s⁻¹ and the specificity constant (kcat/Km) amounted to 1060 M⁻¹ s⁻¹.

B4: AdiA (Escherichia coli K-12; H736E) (protein)
chain: B1 chain with H736E
notes: as for B1
Consider B4, for which, in data set [2], the Km is 15.27 ± 0.79 mM, the turnover number (kcat) was determined as 17.5 ± 0.55 s⁻¹ and the catalytic efficiency (kcat/Km) worked out at 1150 M⁻¹ s⁻¹.
